{"source": "paper PMC6612559", "about": "“Functional characterization of a novel arachidonic acid 12S‐lipoxygenase in the halotolerant bacterium Myxococcus fulvus exhibiting complex social living patterns” (MicrobiologyOpen, 2018)", "proteins": {"B1": {"name": "MF-LOX1 (Myxococcus fulvus LOX1) (Myxococcus fulvus) (protein)", "chain": "MTVEYKLRIRTSTKLGAGTDANISVVLVGTRGESGPHVLDKPFHNDFEAGAEDVYSVQASDDVGALLLLRFGNTGGIAADWLLDHAWVTAGERQWSFPFFRWVRAGATVDVLEGTAKLARHAGCEREATARRELLEARRRMYPWRPAEATEGLPGALDLSEAQPLPKDELYRGLTEGSYEVVIARTLAAIKLHLPLLSKAWNGLVDIFDFFKGLEVPRLAPRWQDDLEFARQAVQGINPLHITLIPQLPQGMPLTDEDVKGVLSPGTTLARALDSKRIFLLDFDILEDIPMYRKVDEDGVEERRWAPAARCLLYLDDLRQLRPLAIQLGRDGGKDPVFTPNDDTYDWLAAKIYLRCSEGNTHQMVAHALRTHFVAEPFVMATMRNLPDPHPVYKLLRRHFRYTLAINEGARKGLLAAGGVFDDFIATGGPDKGHLQLGKKGYQRWKLTDNRPREDLEHRGVLDPAVLPYYPYRDDALPLWDALEEYVGGVLRYFYPTDADLEGDTEMQHWWKDLTEHGLPVDKLPCRELSRVDDLVDILTTVVFTVSVQHAAVNYLQYEHYAFVPNAPLCMRREPPRQKGTLCAEDLPEMIPSRSQTLWQVAIGRALSSFGDDEEYLLNEGGWREEYFQEPQVRALRERFEQRLRAQRDVVAARNAGAQVPYTVLSPDRIPCGITV", "notes": "full length, native protein 676 residues; N-terminal hexa-His tag kept, 32 extra N-terminal residues (pET28b); E. coli, Ni-agarose"}}, "substrate": "CC/C=C\\C/C=C\\C/C=C\\C/C=C\\C/C=C\\CCCC(=O)O", "experiment": "purified protein", "assay_type": "biochemical, Myxococcus fulvus", "details": "PBS, no detergent; O2 co-substrate; fit over all substrate concentrations up to 200 µM"}
{"protein": "B1", "values": [{"measurement": "Km", "result": 70, "unit": "µM"}, {"measurement": "kcat", "result": "(3.1 ± 1.2) x 10^−2 s^-1"}]}
